Data on one molecule can be found in patent US20110135632A1.

One test addresses human TFII-I (human) (UniProt P78347). The experiment in a line: cell-based or functional assay.
The target in another test is human GATA2 (human) (UniProt P23769). The experiment in a line: cell-based or functional assay.

Bounds are passed on as bounds.

Chain of human GATA2 (human) (P23769 whole entry): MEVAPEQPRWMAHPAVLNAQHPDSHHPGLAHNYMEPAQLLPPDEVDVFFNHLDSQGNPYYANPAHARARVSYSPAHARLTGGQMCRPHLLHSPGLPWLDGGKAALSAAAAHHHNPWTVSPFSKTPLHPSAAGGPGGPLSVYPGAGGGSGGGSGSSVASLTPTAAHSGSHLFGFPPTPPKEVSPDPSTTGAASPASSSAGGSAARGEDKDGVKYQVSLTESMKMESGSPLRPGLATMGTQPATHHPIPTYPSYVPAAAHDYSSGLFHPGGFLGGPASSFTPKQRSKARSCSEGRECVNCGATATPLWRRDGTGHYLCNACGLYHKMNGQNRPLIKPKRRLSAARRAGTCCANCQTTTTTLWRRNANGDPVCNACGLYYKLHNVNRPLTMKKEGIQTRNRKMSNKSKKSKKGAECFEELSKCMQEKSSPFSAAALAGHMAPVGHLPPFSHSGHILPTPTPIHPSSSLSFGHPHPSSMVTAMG
Chain of human TFII-I (human) (P78347 2-998 limits assumed): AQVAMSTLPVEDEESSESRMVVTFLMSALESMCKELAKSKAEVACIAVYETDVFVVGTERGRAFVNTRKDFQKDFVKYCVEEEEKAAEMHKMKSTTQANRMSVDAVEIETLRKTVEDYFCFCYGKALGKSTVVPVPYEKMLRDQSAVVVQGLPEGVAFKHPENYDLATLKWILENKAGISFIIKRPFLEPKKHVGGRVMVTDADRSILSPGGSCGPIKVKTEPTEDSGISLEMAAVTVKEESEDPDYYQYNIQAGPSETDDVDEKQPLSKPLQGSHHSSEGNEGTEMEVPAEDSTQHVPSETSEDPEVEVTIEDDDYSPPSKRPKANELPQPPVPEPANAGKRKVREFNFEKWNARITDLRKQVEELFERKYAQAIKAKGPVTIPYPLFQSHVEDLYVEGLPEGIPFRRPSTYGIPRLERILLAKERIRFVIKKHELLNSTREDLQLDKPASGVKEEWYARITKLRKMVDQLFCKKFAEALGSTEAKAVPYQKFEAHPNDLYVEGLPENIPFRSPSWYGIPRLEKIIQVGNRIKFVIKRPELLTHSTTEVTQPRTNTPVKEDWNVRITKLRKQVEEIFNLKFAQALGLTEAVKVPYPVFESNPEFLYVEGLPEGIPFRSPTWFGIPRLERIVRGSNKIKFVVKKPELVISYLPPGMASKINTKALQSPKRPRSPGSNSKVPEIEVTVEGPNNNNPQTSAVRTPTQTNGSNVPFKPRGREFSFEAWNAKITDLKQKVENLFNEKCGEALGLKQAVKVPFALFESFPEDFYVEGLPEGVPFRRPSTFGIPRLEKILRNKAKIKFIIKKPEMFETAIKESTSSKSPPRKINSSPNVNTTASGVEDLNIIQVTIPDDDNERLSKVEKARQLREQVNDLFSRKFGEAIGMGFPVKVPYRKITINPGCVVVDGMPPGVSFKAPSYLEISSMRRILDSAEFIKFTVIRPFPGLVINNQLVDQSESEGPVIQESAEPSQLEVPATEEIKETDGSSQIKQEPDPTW

B1: human p190RhoGAP (protein)
chain: MMMARKQDVRIPTYNISVVGLSGTEKEKGQCGIGKSCLCNRFVRPSADEFHLDHTSVLSTSDFGGRVVNNDHFLYWGEVSRSLEDCVECKMHIVEQTEFIDDQTFQPHRSTALQPYIKRAAATKLASAEKLMYFCTDQLGLEQDFEQKQMPDGKLLVDGFLLGIDVSRGMNRNFDDQLKFVSNLYNQLAKTKKPIVVVLTKCDEGVERYIRDAHTFALSKKNLQVVETSARSNVNVDLAFSTLVQLIDKSRGKTKIIPYFEALKQQSQQIATAKDKYEWLVSRIVKNHNENWLSVSRKMQASPEYQDYVYLEGTQKAKKLFLQHIHRLKHEHIERRRKLYLAALPLAFEALIPNLDEIDHLSCIKAKKLLETKPEFLKWFVVLEETPWDATSHIDNMENERIPFDLMDTVPAEQLYEAHLEKLRNERKRVEMRRAFKENLETSPFITPGKPWEEARSFIMNEDFYQWLEESVYMDIYGKHQKQIIDKAKEEFQELLLEYSELFYELELDAKPSKEKMGVIQDVLGEEQRFKALQKLQAERDALILKHIHFVYHPTKETCPSCPACVDAKIEHLISSRFIRPSDRNQKNSLSDPNIDRINLVILGKDGLARELANEIRALCTNDDKYVIDGKMYELSLRPIEGNVRLPVNSFQTPTFQPHGCLCLYNSKESLSYVVESIEKSRESTLGRRDNHLVHLPLTLILVNKRGDTSGETLHSLIQQGQQIASKLQCVFLDPASAGIGYGRNINEKQISQVLKGLLDSKRNLNLVSSTASIKDLADVDLRIVMCLMCGDPFSADDILFPVLQSQTCKSSHCGSNNSVLLELPIGLHKKRIELSVLSYHSSFSIRKSRLVHGYIVFYSAKRKASLAMLRAFLCEVQDIIPIQLVALTDGAVDVLDNDLSREQLTEGEEIAQEIDGRFTSIPCSQPQHKLEIFHPFFKDVVEKKNIIEATHMYDNAAEACSTTEEVFNSPRAGSPLCNSNLQDSEEDIEPSYSLFREDTSLPSLSKDHSKLSMELEGNDGLSFIMSNFESKLNNKVPPPVKPKPPVHFEITKGDLSYLDQGHRDGQRKSVSSSPWLPQDGFDPSDYAEPMDAVVKPRNEEENIYSVPHDSTQGKIITIRNINKAQSNGSGNGSDSEMDTSSLERGRKVSIVSKPVLYRTRCTRLGRFASYRTSFSVGSDDELGPIRKKEEDQASQGYKGDNAVIPYETDEDPRRRNILRSLRRNTKKPKPKPRPSITKATWESNYFGVPLTTVVTPEKPIPIFIERCIEYIEATGLSTEGIYRVSGNKSEMESLQRQFDQDHNLDLAEKDFTVNTVAGAMKSFFSELPDPLVPYNMQIDLVEAHKINDREQKLHALKEVLKKFPKENHEVFKYVISHLNKVSHNNKVNLMTSENLSICFWPTLMRPDFSTMDALTATRTYQTIIELFIQQCPFFFYNRPITEPPGARPSSPSAVASTVPFLTSTPVTSQPSPPQSPPPTPQSPMQPLLPSQLQAEHTL
B1 registered a TFII-I protein levels in the nuclear fraction of p190RhoGAP knockdown HMVE cells (immunoblot, fluorescence microscopy) with human TFII-I (human) of 1.5 fold. In addition, the GATA2 levels in the nucleus of p190RhoGAP knockdown cells relative to control cells (immunoblotting, fluorescence microscopy) with human GATA2 (human) was greater than 10 fold.
